Data reported in paper PMC10403546.

Columns and labels:
[1] = biological target: X16 UFO (CRF07_BC Env), uncleaved prefusion-optimized Env trimer of isolate BJOX016000.e15 (HIV-1); test: cryo-EM structure
[2] = biological target: X18 UFO (CRF01_AE Env), uncleaved prefusion-optimized Env trimer of isolate BJOX018000.e12 (HIV-1); test: cryo-EM structure
[3] = biological target: X18 UFO (CRF01_AE Env), uncleaved prefusion-optimized Env trimer of isolate BJOX018000.e12 (HIV-1); test: negative stain EM

Row | Substance | stoichiometry N [1] | stoichiometry N [2] | percentage of intact Env trimers, 8ANC195-bound, over 18 h [3] [%] | percentage of intact Env trimers, F6-bound, 1 h [3] [%] | percentage of intact Env trimers, F6-bound, 7 h [3] [%]
1 | X16 UFO (CRF07_BC Env), uncleaved prefusion-optimized Env trimer of isolate BJOX016000.e15 (natural protein) | 3 | – | – | – | –
2 | X18 UFO (CRF01_AE Env), uncleaved prefusion-optimized Env trimer of isolate BJOX018000.e12 (natural protein) | – | 3 | 90 | 83 | 48
